Measurements: paper PMC10421740, “A universal deep-learning model for zinc finger design enables transcription factor reprogramming”

Legend:
[1] = target: T1, ZFN pair 20BC_selected + 20ED_selected (synthetic construct, UniProt P14870;P14870 384-579;384-579); experiment: Zn; U2OS eGFP disruption, 3 days after nucleofection; conditions: tags: N-terminal 3xFLAG and SV40 NLS (kept in the assay, left out here); copies: 1;1
T1 chain 1: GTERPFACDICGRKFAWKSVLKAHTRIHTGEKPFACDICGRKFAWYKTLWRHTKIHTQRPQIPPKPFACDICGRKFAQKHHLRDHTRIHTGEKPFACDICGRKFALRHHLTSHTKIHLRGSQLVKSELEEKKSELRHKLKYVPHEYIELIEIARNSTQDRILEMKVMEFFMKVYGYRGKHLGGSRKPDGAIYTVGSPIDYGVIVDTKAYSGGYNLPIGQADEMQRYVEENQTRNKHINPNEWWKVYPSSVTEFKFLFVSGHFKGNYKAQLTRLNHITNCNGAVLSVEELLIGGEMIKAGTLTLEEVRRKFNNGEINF
T1 chain 2: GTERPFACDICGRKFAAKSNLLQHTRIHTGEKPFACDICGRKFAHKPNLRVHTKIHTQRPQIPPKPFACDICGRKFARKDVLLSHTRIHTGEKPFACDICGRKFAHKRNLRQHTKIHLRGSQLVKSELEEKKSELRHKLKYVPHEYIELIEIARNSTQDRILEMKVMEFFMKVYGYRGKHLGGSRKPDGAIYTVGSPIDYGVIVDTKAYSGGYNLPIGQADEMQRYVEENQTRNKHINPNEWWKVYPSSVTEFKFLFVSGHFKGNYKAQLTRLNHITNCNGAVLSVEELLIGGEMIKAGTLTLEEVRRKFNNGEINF

[2] = target: ZFN pair 20BC_designed + 20ED_designed (synthetic construct, UniProt P14870;P14870 384-579;384-579); experiment: as above; conditions: tags: N-terminal 3xFLAG and SV40 NLS (kept in the assay, left out here); copies: 1;1
[3] = target: T2, KLF6 reprogrammed with array CDKN1C_76 (synthetic construct, UniProt Q99612 1-199); experiment: Zn; HEK293T, RT-qPCR 3 days after transfection
T2 chain: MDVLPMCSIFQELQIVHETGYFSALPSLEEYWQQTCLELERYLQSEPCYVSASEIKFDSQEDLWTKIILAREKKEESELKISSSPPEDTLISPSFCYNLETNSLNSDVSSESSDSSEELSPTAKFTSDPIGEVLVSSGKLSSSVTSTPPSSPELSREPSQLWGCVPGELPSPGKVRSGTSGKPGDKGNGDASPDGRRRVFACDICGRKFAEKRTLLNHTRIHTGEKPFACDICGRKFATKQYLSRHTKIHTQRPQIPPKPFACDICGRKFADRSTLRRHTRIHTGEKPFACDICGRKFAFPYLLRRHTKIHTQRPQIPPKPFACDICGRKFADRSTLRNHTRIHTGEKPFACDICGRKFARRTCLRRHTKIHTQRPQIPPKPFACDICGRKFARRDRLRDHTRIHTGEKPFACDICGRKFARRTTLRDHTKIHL

[4] = target: KLF6 reprogrammed with array CDKN1C_224 (synthetic construct, UniProt Q99612 1-199); experiment: Zn; HEK293T, RT-qPCR 3 days after transfection
[5] = target: ZIM3 reprogrammed with array DPH1_24 (synthetic construct, UniProt Q96PE6 1-166); experiment: Zn; HEK293T, RT-qPCR 3 days after transfection
Chain of ZIM3 reprogrammed with array DPH1_24 (Q96PE6 other isoform, or with tags, fused parts or gaps): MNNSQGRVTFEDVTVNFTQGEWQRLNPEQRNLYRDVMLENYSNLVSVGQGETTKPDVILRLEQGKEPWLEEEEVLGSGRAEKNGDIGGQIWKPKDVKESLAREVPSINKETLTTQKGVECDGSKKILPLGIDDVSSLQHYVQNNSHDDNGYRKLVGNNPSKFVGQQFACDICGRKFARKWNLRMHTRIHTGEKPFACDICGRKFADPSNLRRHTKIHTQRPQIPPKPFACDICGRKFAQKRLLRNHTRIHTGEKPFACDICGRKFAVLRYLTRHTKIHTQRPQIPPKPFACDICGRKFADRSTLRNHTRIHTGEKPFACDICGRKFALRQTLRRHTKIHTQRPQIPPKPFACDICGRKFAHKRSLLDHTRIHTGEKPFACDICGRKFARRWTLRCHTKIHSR

[6] = target: ZIM3 reprogrammed with array DPH1_225 (synthetic construct, UniProt Q96PE6 1-166); experiment: Zn; HEK293T, RT-qPCR 3 days after transfection
Chain of ZIM3 reprogrammed with array DPH1_225 (Q96PE6 other isoform, or with tags, fused parts or gaps): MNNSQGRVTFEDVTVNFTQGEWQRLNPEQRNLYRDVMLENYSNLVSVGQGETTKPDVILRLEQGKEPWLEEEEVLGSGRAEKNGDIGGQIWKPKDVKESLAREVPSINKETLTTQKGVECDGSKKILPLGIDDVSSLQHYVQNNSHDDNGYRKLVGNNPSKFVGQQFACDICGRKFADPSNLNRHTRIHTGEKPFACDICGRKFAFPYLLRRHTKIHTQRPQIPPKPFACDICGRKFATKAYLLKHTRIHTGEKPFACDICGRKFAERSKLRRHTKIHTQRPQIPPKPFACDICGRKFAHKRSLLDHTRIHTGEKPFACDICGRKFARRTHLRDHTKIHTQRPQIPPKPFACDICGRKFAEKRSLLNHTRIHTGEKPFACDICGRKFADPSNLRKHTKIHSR

[7] = target: ZIM3 reprogrammed with array DPH1_99 (synthetic construct, UniProt Q96PE6 1-166); experiment: Zn; HEK293T, RT-qPCR 3 days after transfection
Chain of ZIM3 reprogrammed with array DPH1_99 (Q96PE6 other isoform, or with tags, fused parts or gaps): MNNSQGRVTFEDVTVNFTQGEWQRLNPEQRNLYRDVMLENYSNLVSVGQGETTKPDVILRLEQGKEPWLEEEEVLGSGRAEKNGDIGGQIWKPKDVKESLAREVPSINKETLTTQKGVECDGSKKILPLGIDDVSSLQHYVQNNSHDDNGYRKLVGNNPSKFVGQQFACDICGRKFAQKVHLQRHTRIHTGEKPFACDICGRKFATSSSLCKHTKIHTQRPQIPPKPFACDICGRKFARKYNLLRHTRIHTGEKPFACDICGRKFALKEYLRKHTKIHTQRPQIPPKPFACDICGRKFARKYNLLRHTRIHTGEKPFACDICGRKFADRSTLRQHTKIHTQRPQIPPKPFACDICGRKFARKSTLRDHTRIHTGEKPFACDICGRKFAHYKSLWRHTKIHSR

[8] = target: ZFN pair 1BC_design + 1ED_design (synthetic construct, UniProt P14870;P14870 384-579;384-579); experiment: Zn; U2OS eGFP disruption, 3 days after nucleofection; conditions: tags: N-terminal 3xFLAG and SV40 NLS (kept in the assay, left out here); copies: 1;1
[9] = target: ZFN pair 1BC_selected + 1ED_selected (synthetic construct, UniProt P14870;P14870 384-579;384-579); experiment: as above; conditions: tags: N-terminal 3xFLAG and SV40 NLS (kept in the assay, left out here); copies: 1;1
[10] = target: ZIM3 reprogrammed with array DPH1_151 (synthetic construct, UniProt Q96PE6 1-166); experiment: Zn; HEK293T, RT-qPCR 3 days after transfection
Chain of ZIM3 reprogrammed with array DPH1_151 (Q96PE6 other isoform, or with tags, fused parts or gaps): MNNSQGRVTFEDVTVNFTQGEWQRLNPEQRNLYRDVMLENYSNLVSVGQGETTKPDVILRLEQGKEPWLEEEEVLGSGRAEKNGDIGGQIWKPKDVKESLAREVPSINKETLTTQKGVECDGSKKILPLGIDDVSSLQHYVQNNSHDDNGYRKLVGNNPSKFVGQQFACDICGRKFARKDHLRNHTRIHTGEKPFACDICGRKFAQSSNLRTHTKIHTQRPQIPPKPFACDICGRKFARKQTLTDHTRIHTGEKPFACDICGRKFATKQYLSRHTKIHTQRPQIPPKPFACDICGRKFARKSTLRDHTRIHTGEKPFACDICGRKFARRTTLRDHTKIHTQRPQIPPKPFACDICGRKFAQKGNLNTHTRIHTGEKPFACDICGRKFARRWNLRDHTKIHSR

[11] = target: KLF6 reprogrammed with array CDKN1C_102 (synthetic construct, UniProt Q99612 1-199); experiment: Zn; HEK293T, RT-qPCR 3 days after transfection
[12] = target: ZIM3 reprogrammed with array DPH1_201 (synthetic construct, UniProt Q96PE6 1-166); experiment: Zn; HEK293T, RT-qPCR 3 days after transfection
Chain of ZIM3 reprogrammed with array DPH1_201 (Q96PE6 other isoform, or with tags, fused parts or gaps): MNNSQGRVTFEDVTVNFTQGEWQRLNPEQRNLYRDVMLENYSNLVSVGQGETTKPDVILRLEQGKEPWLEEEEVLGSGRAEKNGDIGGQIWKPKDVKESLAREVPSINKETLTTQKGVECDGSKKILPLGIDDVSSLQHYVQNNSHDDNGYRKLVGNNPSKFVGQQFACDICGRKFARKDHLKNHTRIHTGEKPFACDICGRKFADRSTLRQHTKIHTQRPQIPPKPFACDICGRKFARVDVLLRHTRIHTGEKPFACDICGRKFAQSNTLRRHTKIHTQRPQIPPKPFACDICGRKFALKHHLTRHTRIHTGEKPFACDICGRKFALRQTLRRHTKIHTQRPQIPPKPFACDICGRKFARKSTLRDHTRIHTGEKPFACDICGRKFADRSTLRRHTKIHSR

[13] = target: KLF6 reprogrammed with array CDKN1C_125 (synthetic construct, UniProt Q99612 1-199); experiment: Zn; HEK293T, RT-qPCR 3 days after transfection
[14] = target: KLF6 reprogrammed with array CDKN1C_125 F1-6 (synthetic construct, UniProt Q99612 1-199); experiment: Zn; HEK293T, RT-qPCR 3 days after transfection
[15] = target: ZIM3 reprogrammed with array DPH1_75 (synthetic construct, UniProt Q96PE6 1-166); experiment: Zn; HEK293T, RT-qPCR 3 days after transfection
Chain of ZIM3 reprogrammed with array DPH1_75 (Q96PE6 other isoform, or with tags, fused parts or gaps): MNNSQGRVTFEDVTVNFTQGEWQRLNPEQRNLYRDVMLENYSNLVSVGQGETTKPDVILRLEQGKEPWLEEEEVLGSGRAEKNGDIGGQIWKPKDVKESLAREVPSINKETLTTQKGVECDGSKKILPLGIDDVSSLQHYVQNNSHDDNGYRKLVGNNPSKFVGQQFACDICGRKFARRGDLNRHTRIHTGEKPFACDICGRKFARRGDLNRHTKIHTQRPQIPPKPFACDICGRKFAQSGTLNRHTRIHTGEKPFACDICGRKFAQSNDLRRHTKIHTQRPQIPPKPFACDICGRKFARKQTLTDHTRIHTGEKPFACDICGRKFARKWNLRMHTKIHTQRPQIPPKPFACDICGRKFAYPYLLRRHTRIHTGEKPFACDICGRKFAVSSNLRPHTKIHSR

[16] = target: ZIM3 reprogrammed with array DPH1_126 (synthetic construct, UniProt Q96PE6 1-166); experiment: Zn; HEK293T, RT-qPCR 3 days after transfection
Chain of ZIM3 reprogrammed with array DPH1_126 (Q96PE6 other isoform, or with tags, fused parts or gaps): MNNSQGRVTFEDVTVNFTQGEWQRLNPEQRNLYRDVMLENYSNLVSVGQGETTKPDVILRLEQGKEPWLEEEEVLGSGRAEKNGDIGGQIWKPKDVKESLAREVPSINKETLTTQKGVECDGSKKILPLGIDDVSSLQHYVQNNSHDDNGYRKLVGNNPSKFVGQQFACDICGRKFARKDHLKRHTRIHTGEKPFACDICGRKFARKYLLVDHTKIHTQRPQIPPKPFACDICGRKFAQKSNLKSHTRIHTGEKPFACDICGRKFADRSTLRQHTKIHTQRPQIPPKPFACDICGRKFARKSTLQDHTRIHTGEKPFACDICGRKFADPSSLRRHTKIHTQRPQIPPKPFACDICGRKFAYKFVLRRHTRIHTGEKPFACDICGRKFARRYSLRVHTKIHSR

[17] = target: KLF6 reprogrammed with array CDKN1C_150 (synthetic construct, UniProt Q99612 1-199); experiment: Zn; HEK293T, RT-qPCR 3 days after transfection
[18] = target: ZIM3 reprogrammed with array DPH1_51 (synthetic construct, UniProt Q96PE6 1-166); experiment: Zn; HEK293T, RT-qPCR 3 days after transfection
Chain of ZIM3 reprogrammed with array DPH1_51 (Q96PE6 other isoform, or with tags, fused parts or gaps): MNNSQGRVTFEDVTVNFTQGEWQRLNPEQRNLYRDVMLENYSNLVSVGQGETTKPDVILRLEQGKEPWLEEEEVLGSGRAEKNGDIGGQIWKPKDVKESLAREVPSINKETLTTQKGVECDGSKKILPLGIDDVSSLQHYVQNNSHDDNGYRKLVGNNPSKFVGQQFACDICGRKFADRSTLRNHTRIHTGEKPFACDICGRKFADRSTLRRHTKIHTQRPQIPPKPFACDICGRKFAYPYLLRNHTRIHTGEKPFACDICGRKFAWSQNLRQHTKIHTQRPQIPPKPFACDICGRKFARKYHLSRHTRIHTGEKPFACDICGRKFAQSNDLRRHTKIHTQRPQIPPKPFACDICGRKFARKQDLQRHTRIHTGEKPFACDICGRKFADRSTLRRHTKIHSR

[19] = target: T3, KLF6 reprogrammed with array CDKN1C_172 (synthetic construct, UniProt Q99612 1-199); experiment: Zn; HEK293T, RT-qPCR 3 days after transfection
T3 chain: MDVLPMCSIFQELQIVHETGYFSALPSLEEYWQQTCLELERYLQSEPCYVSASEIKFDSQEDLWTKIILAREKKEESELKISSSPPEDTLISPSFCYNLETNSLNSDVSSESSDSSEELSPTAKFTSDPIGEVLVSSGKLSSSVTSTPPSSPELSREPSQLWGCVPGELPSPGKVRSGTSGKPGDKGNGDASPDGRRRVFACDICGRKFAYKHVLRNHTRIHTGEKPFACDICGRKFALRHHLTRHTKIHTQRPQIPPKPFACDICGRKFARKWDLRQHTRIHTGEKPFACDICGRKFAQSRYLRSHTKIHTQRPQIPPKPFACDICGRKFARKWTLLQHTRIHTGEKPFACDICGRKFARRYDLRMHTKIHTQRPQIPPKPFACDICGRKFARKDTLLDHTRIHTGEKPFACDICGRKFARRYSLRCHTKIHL

[20] = target: ZIM3 reprogrammed with array Tet3 Rev (synthetic construct, UniProt Q96PE6 1-166); experiment: Zn; HEK293T, 7x tetO CMV eGFP reporter
Chain of ZIM3 reprogrammed with array Tet3 Rev (Q96PE6 other isoform, or with tags, fused parts or gaps): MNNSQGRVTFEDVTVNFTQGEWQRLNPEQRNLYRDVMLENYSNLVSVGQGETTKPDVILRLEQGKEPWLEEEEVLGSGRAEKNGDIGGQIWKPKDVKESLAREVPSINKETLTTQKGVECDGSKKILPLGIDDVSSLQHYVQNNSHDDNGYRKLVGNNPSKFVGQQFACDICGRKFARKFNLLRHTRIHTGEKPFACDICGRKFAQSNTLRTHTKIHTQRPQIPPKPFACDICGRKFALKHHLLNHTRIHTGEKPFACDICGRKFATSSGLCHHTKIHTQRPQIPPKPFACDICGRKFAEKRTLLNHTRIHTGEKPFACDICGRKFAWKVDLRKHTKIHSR

[21] = target: T4, KLF6 reprogrammed with array Tet3 Rev (synthetic construct, UniProt Q99612 1-199); experiment: Zn; HEK293T, 7x tetO minimal CMV GFP reporter
T4 chain: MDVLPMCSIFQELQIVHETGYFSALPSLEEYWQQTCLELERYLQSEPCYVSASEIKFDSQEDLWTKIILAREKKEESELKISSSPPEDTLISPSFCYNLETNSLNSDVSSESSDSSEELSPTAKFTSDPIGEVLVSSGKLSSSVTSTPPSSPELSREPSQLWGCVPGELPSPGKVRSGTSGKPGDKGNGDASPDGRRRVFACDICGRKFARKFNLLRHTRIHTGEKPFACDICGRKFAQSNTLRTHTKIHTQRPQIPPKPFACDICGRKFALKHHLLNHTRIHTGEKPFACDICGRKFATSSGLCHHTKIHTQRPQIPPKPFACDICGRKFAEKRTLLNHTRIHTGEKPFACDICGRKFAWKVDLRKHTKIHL

[22] = target: T5, KLF6 reprogrammed with array Tet4 Rev (synthetic construct, UniProt Q99612 1-199); experiment: Zn; HEK293T, 7x tetO minimal CMV GFP reporter
T5 chain: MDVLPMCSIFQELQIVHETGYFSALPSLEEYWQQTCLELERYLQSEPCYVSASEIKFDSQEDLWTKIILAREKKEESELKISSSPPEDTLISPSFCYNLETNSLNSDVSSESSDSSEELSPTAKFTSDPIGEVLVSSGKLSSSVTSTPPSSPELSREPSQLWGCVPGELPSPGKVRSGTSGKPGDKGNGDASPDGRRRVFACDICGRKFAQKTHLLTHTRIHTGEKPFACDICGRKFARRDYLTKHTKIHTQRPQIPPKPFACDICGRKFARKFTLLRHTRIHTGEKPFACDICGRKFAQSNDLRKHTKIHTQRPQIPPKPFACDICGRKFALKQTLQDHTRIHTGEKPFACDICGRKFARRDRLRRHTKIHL

B1: eGFP site 20 (8 fingers) (dsDNA)
DNA 1: GAAGGGCATCGACTTCAAGGAGGACGGCAACATC
DNA 2: GATGTTGCCGTCCTCCTTGAAGTCGATGCCCTTC
binding signal [1]: ~69 % GFP-negative cells (higher = more activity)
binding signal [2]: ~17 % GFP-negative cells (higher = more activity)

B2: CDKN1C_76 (dsDNA)
DNA 1: GCGCGCCCCGGCCGCGCGCCCCGCCCCG
DNA 2: CGGGGCGGGGCGCGCGGCCGGGGCGCGC
binding signal [3]: ~2 relative expression (higher = more activity)

B3: CDKN1C_224 (dsDNA)
DNA 1: GCTAATCGCGGCCGGGCCCGCGCGCACG
DNA 2: CGTGCGCGCGGGCCCGGCCGCGATTAGC
binding signal [4]: ~2.5 relative expression (higher = more activity)

B4: DPH1_24 (dsDNA)
DNA 1: CTGCTCCGCTGCCCCGGATACGACCAGC
DNA 2: GCTGGTCGTATCCGGGGCAGCGGAGCAG
binding signal [5]: ~0.27 relative expression (lower = more activity, repressor)

B5: DPH1_225 (dsDNA)
DNA 1: TACCCCTGGGCTCCGGCTGACAGCGACC
DNA 2: GGTCGCTGTCAGCCGGAGCCCAGGGGTA
binding signal [6]: ~0.62 relative expression (lower = more activity, repressor)

B6: DPH1_99 (dsDNA)
DNA 1: GCCCCGCCCCGAGATGCGAGGTCTGGAG
DNA 2: CTCCAGACCTCGCATCTCGGGGCGGGGC
binding signal [7]: ~0.68 relative expression (lower = more activity, repressor)

B7: eGFP site 1 (8 fingers) (dsDNA)
DNA 1: TGTTCACCGGGGTGGTGCCCATCCTGGTCGAGCT
DNA 2: AGCTCGACCAGGATGGGCACCACCCCGGTGAACA
binding signal [8]: ~35 % GFP-negative cells (higher = more activity)
binding signal [9]: ~53 % GFP-negative cells (higher = more activity)

B8: DPH1_151 (dsDNA)
DNA 1: GAGAAAGGCGCCGCCGCCGTTAAAGGGG
DNA 2: CCCCTTTAACGGCGGCGGCGCCTTTCTC
binding signal [10]: ~0.7 relative expression (lower = more activity, repressor)

B9: CDKN1C_102 (dsDNA)
DNA 1: CGCCCCCGGTGGGTGTGCGCGCGGCCAA
DNA 2: TTGGCCGCGCGCACACCCACCGGGGGCG
binding signal [11]: ~2.5 relative expression (higher = more activity)

B10: DPH1_201 (dsDNA)
DNA 1: ACCCCGAGCTGGTGACAGCGGCCCAAGG
DNA 2: CCTTGGGCCGCTGTCACCAGCTCGGGGT
binding signal [12]: ~0.43 relative expression (lower = more activity, repressor)

B11: CDKN1C_125 (dsDNA)
DNA 1: GCCAATGGGCGGTGCGCGGGGGCCGGGC
DNA 2: GCCCGGCCCCCGCGCACCGCCCATTGGC
binding signal [13]: ~43 relative expression (higher = more activity)
binding signal [14]: ~16.5 relative expression (higher = more activity)

B12: DPH1_75 (dsDNA)
DNA 1: GAGGGCGCAGCGTTCCAGCACCCACCTC
DNA 2: GAGGTGGGTGCTGGAACGCTGCGCCCTC
binding signal [15]: ~0.62 relative expression (lower = more activity, repressor)

B13: DPH1_126 (dsDNA)
DNA 1: GGGGTTGGTCCTGTCCCTAACTTGGGGG
DNA 2: CCCCCAAGTTAGGGACAGGACCAACCCC
binding signal [16]: ~0.14 relative expression (lower = more activity, repressor)

B14: CDKN1C_150 (dsDNA)
DNA 1: GGCCGCGGCGGGGCGGGGCAGCGGGGCG
DNA 2: CGCCCCGCTGCCCCGCCCCGCCGCGGCC
binding signal [17]: ~9 relative expression (higher = more activity)

B15: DPH1_51 (dsDNA)
DNA 1: ACCTCTGCCAGGGCCGTCTCGGCCGCCC
DNA 2: GGGCGGCCGAGACGGCCCTGGCAGAGGT
binding signal [18]: ~0.61 relative expression (lower = more activity, repressor)

B16: CDKN1C_172 (dsDNA)
DNA 1: GGGGCGGCCGCCAATCGCCGTGGTGTTG
DNA 2: CAACACCACGGCGATTGGCGGCCGCCCC
binding signal [19]: ~3.3 relative expression (higher = more activity)

B17: tetO (dsDNA)
DNA 1: TCTCCCTATCAGTGATAGAGAC
DNA 2: GTCTCTATCACTGATAGGGAGA
binding signal [20]: ~0.23 normalised eGFP fluorescence (lower = more activity, repressor)
binding signal [21]: ~41000 mean GFP fluorescence (higher = more activity)
binding signal [22]: ~2500 mean GFP fluorescence (higher = more activity)
